# Assay results: patent US20220298218A1 (ANTAG THERAPEUTICS, published 2022)
# Where two headings read alike, the source gives them in different places. *1 amine or outer side, *2 acyl side, *3 side chain or, on linkers, in order; H or OH if unused. Where no end group is shown, it is not given here. Side-chain parts run from the residue outwards. The star is where a group is joined. C18 diacid = O=C(O)CCCCCCCCCCCCCCCCC(=O)*; C16 diacid = O=C(O)CCCCCCCCCCCCCCC(=O)*; γGlu = O=C(O)[C@H](CCC(=O)[*:2])N[*:1]; AEEA = NCCOCCOCC(=O)O
# Legend:
# human GIP receptor [1] = target: T1, human GIP receptor (human, UniProt P48546 22-466); test: cell-based or functional assay
# T1 sequence (looked up): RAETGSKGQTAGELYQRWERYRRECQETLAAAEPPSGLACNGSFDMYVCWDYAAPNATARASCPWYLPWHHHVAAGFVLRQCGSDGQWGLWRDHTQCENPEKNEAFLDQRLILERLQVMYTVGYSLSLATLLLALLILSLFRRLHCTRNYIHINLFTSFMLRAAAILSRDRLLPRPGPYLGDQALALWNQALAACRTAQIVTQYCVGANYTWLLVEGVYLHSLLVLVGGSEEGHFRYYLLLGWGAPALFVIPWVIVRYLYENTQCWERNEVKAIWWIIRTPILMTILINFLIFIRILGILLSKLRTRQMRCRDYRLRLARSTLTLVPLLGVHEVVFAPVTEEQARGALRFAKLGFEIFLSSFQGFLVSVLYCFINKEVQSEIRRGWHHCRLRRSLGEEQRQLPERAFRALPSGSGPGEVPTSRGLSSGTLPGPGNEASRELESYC
# human GIP receptor [2] = target: T1, human GIP receptor; test: cell-based or functional assay; remark: listed apart in the source
Binder,cAMP agonism % Emax (human GIP receptor [1]),cAMP antagonism (human GIP receptor [1]),cAMP antagonism % inhib (human GIP receptor [1]),cAMP antagonism pIC50 (human GIP receptor [1]),cAMP antagonism (human GIP receptor [2]),cAMP antagonism % inhib (human GIP receptor [2]),cAMP antagonism log (human GIP receptor [2]),cAMP agonism Emax (human GIP receptor [2])
EGTFISDYSIAMDKIK(C16 diacid)QQDFVNWLLAQKGPSSGAP-OH (N-terminus assumed; SMILES CC[C@H](C)[C@H](NC(=O)[C@H](CO)NC(=O)[C@H](Cc1ccc(O)cc1)NC(=O)[C@H](CC(=O)O)NC(=O)[C@H](CO)NC(=O)[C@@H](NC(=O)[C@H](Cc1ccccc1)NC(=O)[C@@H](NC(=O)CNC(=O)[C@@H](N)CCC(=O)O)[C@@H](C)O)[C@@H](C)CC)C(=O)N[C@@H](C)C(=O)N[C@@H](CCSC)C(=O)N[C@@H](CC(=O)O)C(=O)N[C@@H](CCCCN)C(=O)N[C@H](C(=O)N[C@@H](CCCCNC(=O)CCCCCCCCCCCCCCC(=O)O)C(=O)N[C@@H](CCC(N)=O)C(=O)N[C@@H](CCC(N)=O)C(=O)N[C@@H](CC(=O)O)C(=O)N[C@@H](Cc1ccccc1)C(=O)N[C@H](C(=O)N[C@@H](CC(N)=O)C(=O)N[C@@H](Cc1c[nH]c2ccccc12)C(=O)N[C@@H](CC(C)C)C(=O)N[C@@H](CC(C)C)C(=O)N[C@@H](C)C(=O)N[C@@H](CCC(N)=O)C(=O)N[C@@H](CCCCN)C(=O)NCC(=O)N1CCC[C@H]1C(=O)N[C@@H](CO)C(=O)N[C@@H](CO)C(=O)NCC(=O)N[C@@H](C)C(=O)N1CCC[C@H]1C(=O)O)C(C)C)[C@@H](C)CC) [AT469],0%,3.8 nM,93%,8.4,3 nM,90%,-8.5 log M,–
EGTFISDYSIAMDKIK(C16 diacid)QQDFVNWLLAQKGPSSGA-OH (N-terminus assumed; SMILES CC[C@H](C)[C@H](NC(=O)[C@H](CO)NC(=O)[C@H](Cc1ccc(O)cc1)NC(=O)[C@H](CC(=O)O)NC(=O)[C@H](CO)NC(=O)[C@@H](NC(=O)[C@H](Cc1ccccc1)NC(=O)[C@@H](NC(=O)CNC(=O)[C@@H](N)CCC(=O)O)[C@@H](C)O)[C@@H](C)CC)C(=O)N[C@@H](C)C(=O)N[C@@H](CCSC)C(=O)N[C@@H](CC(=O)O)C(=O)N[C@@H](CCCCN)C(=O)N[C@H](C(=O)N[C@@H](CCCCNC(=O)CCCCCCCCCCCCCCC(=O)O)C(=O)N[C@@H](CCC(N)=O)C(=O)N[C@@H](CCC(N)=O)C(=O)N[C@@H](CC(=O)O)C(=O)N[C@@H](Cc1ccccc1)C(=O)N[C@H](C(=O)N[C@@H](CC(N)=O)C(=O)N[C@@H](Cc1c[nH]c2ccccc12)C(=O)N[C@@H](CC(C)C)C(=O)N[C@@H](CC(C)C)C(=O)N[C@@H](C)C(=O)N[C@@H](CCC(N)=O)C(=O)N[C@@H](CCCCN)C(=O)NCC(=O)N1CCC[C@H]1C(=O)N[C@@H](CO)C(=O)N[C@@H](CO)C(=O)NCC(=O)N[C@@H](C)C(=O)O)C(C)C)[C@@H](C)CC) [AT470],0%,20 nM,91%,7.7,14 nM,100%,-7.8 log M,–
EGTFISDYSIAMDKIK(C16 diacid)QQDFVNWLLAQKGPSSGAPP-OH (N-terminus assumed; SMILES CC[C@H](C)[C@H](NC(=O)[C@H](CO)NC(=O)[C@H](Cc1ccc(O)cc1)NC(=O)[C@H](CC(=O)O)NC(=O)[C@H](CO)NC(=O)[C@@H](NC(=O)[C@H](Cc1ccccc1)NC(=O)[C@@H](NC(=O)CNC(=O)[C@@H](N)CCC(=O)O)[C@@H](C)O)[C@@H](C)CC)C(=O)N[C@@H](C)C(=O)N[C@@H](CCSC)C(=O)N[C@@H](CC(=O)O)C(=O)N[C@@H](CCCCN)C(=O)N[C@H](C(=O)N[C@@H](CCCCNC(=O)CCCCCCCCCCCCCCC(=O)O)C(=O)N[C@@H](CCC(N)=O)C(=O)N[C@@H](CCC(N)=O)C(=O)N[C@@H](CC(=O)O)C(=O)N[C@@H](Cc1ccccc1)C(=O)N[C@H](C(=O)N[C@@H](CC(N)=O)C(=O)N[C@@H](Cc1c[nH]c2ccccc12)C(=O)N[C@@H](CC(C)C)C(=O)N[C@@H](CC(C)C)C(=O)N[C@@H](C)C(=O)N[C@@H](CCC(N)=O)C(=O)N[C@@H](CCCCN)C(=O)NCC(=O)N1CCC[C@H]1C(=O)N[C@@H](CO)C(=O)N[C@@H](CO)C(=O)NCC(=O)N[C@@H](C)C(=O)N1CCC[C@H]1C(=O)N1CCC[C@H]1C(=O)O)C(C)C)[C@@H](C)CC) [AT468],0%,12.6 nM,92%,7.9,13 nM,95%,-7.9 log M,4.6
EGTFISDYSIAMDKIK(C16 diacid)QQDFVNWLLAQKGPSSGAPPP-OH (N-terminus assumed; SMILES CC[C@H](C)[C@H](NC(=O)[C@H](CO)NC(=O)[C@H](Cc1ccc(O)cc1)NC(=O)[C@H](CC(=O)O)NC(=O)[C@H](CO)NC(=O)[C@@H](NC(=O)[C@H](Cc1ccccc1)NC(=O)[C@@H](NC(=O)CNC(=O)[C@@H](N)CCC(=O)O)[C@@H](C)O)[C@@H](C)CC)C(=O)N[C@@H](C)C(=O)N[C@@H](CCSC)C(=O)N[C@@H](CC(=O)O)C(=O)N[C@@H](CCCCN)C(=O)N[C@H](C(=O)N[C@@H](CCCCNC(=O)CCCCCCCCCCCCCCC(=O)O)C(=O)N[C@@H](CCC(N)=O)C(=O)N[C@@H](CCC(N)=O)C(=O)N[C@@H](CC(=O)O)C(=O)N[C@@H](Cc1ccccc1)C(=O)N[C@H](C(=O)N[C@@H](CC(N)=O)C(=O)N[C@@H](Cc1c[nH]c2ccccc12)C(=O)N[C@@H](CC(C)C)C(=O)N[C@@H](CC(C)C)C(=O)N[C@@H](C)C(=O)N[C@@H](CCC(N)=O)C(=O)N[C@@H](CCCCN)C(=O)NCC(=O)N1CCC[C@H]1C(=O)N[C@@H](CO)C(=O)N[C@@H](CO)C(=O)NCC(=O)N[C@@H](C)C(=O)N1CCC[C@H]1C(=O)N1CCC[C@H]1C(=O)N1CCC[C@H]1C(=O)O)C(C)C)[C@@H](C)CC) [AT467],0%,14.7 nM,86%,7.8,6 nM,100%,-8.2 log M,–
SGTFISDYSIAMDRIK([AEEA-AEEA-γGlu-C18 diacid])QQDFVNWLLAQRGPSSGAPPPS-OH (N-terminus assumed; SMILES CC[C@H](C)[C@H](NC(=O)[C@H](CO)NC(=O)[C@H](Cc1ccc(O)cc1)NC(=O)[C@H](CC(=O)O)NC(=O)[C@H](CO)NC(=O)[C@@H](NC(=O)[C@H](Cc1ccccc1)NC(=O)[C@@H](NC(=O)CNC(=O)[C@@H](N)CO)[C@@H](C)O)[C@@H](C)CC)C(=O)N[C@@H](C)C(=O)N[C@@H](CCSC)C(=O)N[C@@H](CC(=O)O)C(=O)N[C@@H](CCCNC(=N)N)C(=O)N[C@H](C(=O)N[C@@H](CCCCNC(=O)COCCOCCNC(=O)COCCOCCNC(=O)CC[C@H](NC(=O)CCCCCCCCCCCCCCCCC(=O)O)C(=O)O)C(=O)N[C@@H](CCC(N)=O)C(=O)N[C@@H](CCC(N)=O)C(=O)N[C@@H](CC(=O)O)C(=O)N[C@@H](Cc1ccccc1)C(=O)N[C@H](C(=O)N[C@@H](CC(N)=O)C(=O)N[C@@H](Cc1c[nH]c2ccccc12)C(=O)N[C@@H](CC(C)C)C(=O)N[C@@H](CC(C)C)C(=O)N[C@@H](C)C(=O)N[C@@H](CCC(N)=O)C(=O)N[C@@H](CCCNC(=N)N)C(=O)NCC(=O)N1CCC[C@H]1C(=O)N[C@@H](CO)C(=O)N[C@@H](CO)C(=O)NCC(=O)N[C@@H](C)C(=O)N1CCC[C@H]1C(=O)N1CCC[C@H]1C(=O)N1CCC[C@H]1C(=O)N[C@@H](CO)C(=O)O)C(C)C)[C@@H](C)CC) [AT441],0%,21.5 nM,89%,7.7,25 nM,55%,-7.6 log M,–
